The values that follow come from paper PMC7268104, “WRKY Transcription Factor OsWRKY29 Represses Seed Dormancy in Rice by Weakening Abscisic Acid Response”.

B1: OsABF1 promoter A1 probe (dsDNA)
DNA 1: AGCGTTAAAGCCATATGTTAAGAACGCGTTGACGAGAAGCTCGAGTTTGAGGTTATGGCC
DNA 2: GGCCATAACCTCAAACTCGAGCTTCTCGTCAACGCGTTCTTAACATATGGCTTTAACGCT
B2: OsVP1 promoter V1 probe (dsDNA)
DNA 1: TCAACCTACCATATCGCTCAAATGATTGTTGACCTGTAACACCCAACGACCTTTATTTAC
DNA 2: GTAAATAAAGGTCGTTGGGTGTTACAGGTCAACAATCATTTGAGCGATATGGTAGGTTGA
B3: OsVP1 promoter V3 probe (dsDNA)
DNA 1: CGGTCAAAACCAGCACGCGCCGAAATCCCGTACTTCCCACTGACACGTAGGCCCCACTGTCATTGACCG
DNA 2: CGGTCAATGACAGTGGGGCCTACGTGTCAGTGGGAAGTACGGGATTTCGGCGCGTGCTGGTTTTGACCG

Sequence of OsWRKY29-MBP (Q6IEQ2 entry or part of it): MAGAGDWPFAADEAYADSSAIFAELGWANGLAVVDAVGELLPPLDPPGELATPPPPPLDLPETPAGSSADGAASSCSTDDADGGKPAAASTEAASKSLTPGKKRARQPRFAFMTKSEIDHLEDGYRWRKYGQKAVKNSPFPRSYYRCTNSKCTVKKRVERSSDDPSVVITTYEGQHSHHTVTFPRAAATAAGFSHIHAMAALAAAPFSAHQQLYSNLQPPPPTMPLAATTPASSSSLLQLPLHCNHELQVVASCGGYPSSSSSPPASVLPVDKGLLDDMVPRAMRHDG

The data set has as its target OsWRKY29-MBP (Oryza sativa (rice; cv. Hwayoung?), UniProt Q6IEQ2 1-288). Briefly: EMSA; unlabeled probe competes dose-dependently; LightShift Chemiluminescent EMSA kit binding buffer, 1 ug protein in 20 ul, room temperature, 30 min; 6.5% native PAGE, 0.5x TBE; salt and pH not stated. To be noted: protein: recombinant; tags: MBP (pMAL-c2x fusion); blunt. Background: Mobility shift assays separate free from complexed probe on a gel.
In the case of B1, the binding result was “binds”. The result for B2 reads “binds”; that for B3, “binds”.
